In paper PMC6181050:

Assays:
[1] = biological target: PSI core complex (Chlamydomonas reinhardtii) (UniProt P12154); assay: co-purification by sucrose density gradient ultracentrifugation with 14C autoradiography; PSI-LHCI supercomplex from uniformly 14C-labelled wild-type cells; NaBr-washed thylakoids solubilised with 0.8% beta-DDM; TLS-55 rotor, 259,000g, 2.5 h; polypeptides separated by three SDS-PAGE systems; signal divided by carbon number and normalised to PSAF
[2] = biological target: PSI core complex (Chlamydomonas reinhardtii) (UniProt P12154); assay: co-purification by sucrose density gradient ultracentrifugation with immunoblotting; PSI-LHCI complex from the ΔLHCA5 mutant (no LHCA5); thylakoids solubilised with 1% beta-DDM; SW41Ti, 288,000g, 4°C, 16 h; immunoblots normalised to PSAD
[3] = biological target: PSAF (Chlamydomonas reinhardtii); assay: co-purification by sucrose density gradient ultracentrifugation with 14C autoradiography; PSI-LHCI supercomplex from uniformly 14C-labelled wild-type cells; NaBr-washed thylakoids solubilised with 0.8% beta-DDM; TLS-55 rotor, 259,000g, 2.5 h; polypeptides separated by three SDS-PAGE systems; signal divided by carbon number and normalised to PSAF

UniProt P12154, sequence (P12154 whole entry, looked up, one chain of several): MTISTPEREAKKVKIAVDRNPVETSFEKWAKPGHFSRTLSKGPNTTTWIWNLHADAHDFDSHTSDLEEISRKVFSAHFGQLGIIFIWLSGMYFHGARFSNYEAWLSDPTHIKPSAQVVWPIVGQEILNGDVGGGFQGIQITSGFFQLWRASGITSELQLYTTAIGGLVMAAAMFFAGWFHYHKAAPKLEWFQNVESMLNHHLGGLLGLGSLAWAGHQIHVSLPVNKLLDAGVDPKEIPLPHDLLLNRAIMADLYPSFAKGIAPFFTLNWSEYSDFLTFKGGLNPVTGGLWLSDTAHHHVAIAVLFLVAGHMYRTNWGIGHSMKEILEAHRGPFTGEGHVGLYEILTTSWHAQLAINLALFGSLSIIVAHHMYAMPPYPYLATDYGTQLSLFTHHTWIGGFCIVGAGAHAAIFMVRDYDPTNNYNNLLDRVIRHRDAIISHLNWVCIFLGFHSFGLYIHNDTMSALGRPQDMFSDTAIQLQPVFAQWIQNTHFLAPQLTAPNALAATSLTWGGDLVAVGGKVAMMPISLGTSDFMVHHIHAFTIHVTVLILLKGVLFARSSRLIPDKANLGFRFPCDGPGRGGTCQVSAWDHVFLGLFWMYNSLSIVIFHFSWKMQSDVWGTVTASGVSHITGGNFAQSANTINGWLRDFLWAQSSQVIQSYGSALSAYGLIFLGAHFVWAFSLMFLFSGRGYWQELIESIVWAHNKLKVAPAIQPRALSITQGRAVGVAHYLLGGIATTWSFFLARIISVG

Substance	stoichiometry N (copy, on a PSAF basis) [1]	further results
LHCA9 (natural protein)	1	
LHCA1 (natural protein)		amount in the PSI-LHCI supercomplex from the ΔLHCA5 mutant, percent of the control level [2]: 50%; stoichiometry N (copies, on a PSAF basis) [1]: 1.81
LHCA2 (natural protein)	1	
LHCA8 (natural protein)	1	
LHCA7 (natural protein)	1	
LHCA3 (natural protein)	1	
PSAD (natural protein)		stoichiometry N (relative abundance, on a PSAF basis) [3]: 1.17
LHCA5 (natural protein)	1	
